Common to all, as to assay: FP
Assay [1] deals with P3, fluorescein-labelled proline-rich peptide from the SOS1 proline-rich domain (human) (UniProt Q07889).
For assay [2], the target named is P7, fluorescein-labelled proline-rich peptide from the SOS1 proline-rich domain (human) (UniProt Q07889).
Assay [3] concerns the target P4, fluorescein-labelled proline-rich peptide from the SOS1 proline-rich domain (human) (UniProt Q07889).
Assay [4] deals with P5, fluorescein-labelled proline-rich peptide from the SOS1 proline-rich domain (human) (UniProt Q07889).
Assay [5] has as its target RP1, fluorescein-labelled reference peptide, a SOS1 derivative encompassing part of P3 (human) (UniProt Q07889).
In assay [6] the target is RP2, fluorescein-labelled reference peptide from the N-terminal extension of the RHO GTPase WRCH1/RHOU (human) (UniProt Q7L0Q8).
RP2, fluorescein-labelled reference peptide from the N-terminal extension of the RHO GTPase WRCH1/RHOU (human), sequence (Q7L0Q8 whole entry, looked up, the tested form may be a part): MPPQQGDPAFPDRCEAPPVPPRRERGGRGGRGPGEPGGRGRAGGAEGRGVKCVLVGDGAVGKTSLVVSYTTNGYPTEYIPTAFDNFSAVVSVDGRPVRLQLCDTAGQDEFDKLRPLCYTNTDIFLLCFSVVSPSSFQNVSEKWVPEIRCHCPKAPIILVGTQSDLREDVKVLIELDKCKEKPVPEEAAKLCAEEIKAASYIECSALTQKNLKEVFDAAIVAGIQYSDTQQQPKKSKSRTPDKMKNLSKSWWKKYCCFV
Assay [7] has as its target P1, fluorescein-labelled proline-rich peptide from the SOS1 proline-rich domain (human) (UniProt Q07889).
The target of assay [8] is P2, fluorescein-labelled proline-rich peptide from the SOS1 proline-rich domain (human) (UniProt Q07889).

Like-named read-outs stand apart in the source and are kept apart here.

CRK-1 SH3 domain, GST cleaved, sequence (P46108 127-301): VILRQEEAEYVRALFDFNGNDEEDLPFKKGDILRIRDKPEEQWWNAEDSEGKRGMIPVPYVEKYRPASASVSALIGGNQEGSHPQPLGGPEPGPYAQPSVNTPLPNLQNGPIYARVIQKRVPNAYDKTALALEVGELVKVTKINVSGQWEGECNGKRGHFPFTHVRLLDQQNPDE

With “CRK-1 SH3 domain, GST cleaved (from UniProt P46108)”, the values for the Kd in assay [1] (domain or fragment) and in assay [2] (domain or fragment) were 12.9 µM and 18.1 µM, respectively.

For GRB2-1, the Kd was determined as 15 µM in assay [1], 60 µM in assay [3], 62 µM in assay [4] and 11 µM in assay [5].

Take GRB2-2: the Kd in assay [1] stood at 12 µM; in assay [3] it was 20 µM; in assay [4], 35 µM; in assay [5], 3.4 µM.

For the substance ITSN1-1, the Kd amounted to 6.6 µM in assay [3], 39 µM in assay [5] and 11 µM in assay [6].

For ITSN1-5, the Kd in assay [7] came to 23 µM; in assay [3], 12 µM; in assay [6], 23 µM.

With RIMBP3B-1, the results for the Kd in assay [8] and in assay [2] were 21 µM and 15 µM, respectively.

SH3PXD2A-1: the Kd was 44 µM in assay [8], 18 µM in assay [1] and 21 µM in assay [6].

SORBS1-1: the Kd in assay [2] turned out to be 13.2 µM.

SRC: the figures for the Kd in assay [1] and in assay [2] were 2 µM and 13.3 µM, respectively.

Source of the values: publication PMC10814857, “Functional Classification and Interaction Selectivity Landscape of the Human SH3 Domain Superfamily” (Cells, 2024).
